Measured values: US20050064507

Tests used:
[1] = biological target: T1, FLJ20719 peptide RRGRRSTKKRRR (SEQ ID NO:171) (not fully specified)
T1 chain: RRGRRSTKKRRR

[2] = biological target: T2, MAST3 peptide TQDRRKSLFKKI (SEQ ID NO:201) (not fully specified)
T2 chain: TQDRRKSLFKKI

[3] = biological target: T3, MAST3 peptide ARRSKRSRRRET (SEQ ID NO:183) (not fully specified)
T3 chain: ARRSKRSRRRET

[4] = biological target: T4, BRCA1 peptide LRRKSSTRHIHA (SEQ ID NO:187) (not fully specified)
T4 chain: LRRKSSTRHIHA

[5] = biological target: T5, absent in melanoma 1 peptide RSGRRRGSQKS (SEQ ID NO:173) (not fully specified)
T5 chain: RSGRRRGSQKS

[6] = biological target: T6, BTK peptide ERGRRGSKKGSI (SEQ ID NO:188) (not fully specified)
T6 chain: ERGRRGSKKGSI

[7] = biological target: T7, CHD1 peptide EGRRSRSRRYSG (SEQ ID NO:205) (not fully specified)
T7 chain: EGRRSRSRRYSG

[8] = biological target: T8, supervillin peptide VMKRKFSLRAAE (SEQ ID NO:202) (not fully specified)
T8 chain: VMKRKFSLRAAE

[9] = biological target: T9, GPR105 peptide KSSRNSTSVKKK (SEQ ID NO:206) (not fully specified)
T9 chain: KSSRNSTSVKKK

[10] = biological target: T10, PCTK2 peptide KKFKRRLSLTLR (SEQ ID NO:185) (not fully specified)
T10 chain: KKFKRRLSLTLR

[11] = biological target: T11, NKTR peptide RSRSYSRSRSR (SEQ ID NO:211) (not fully specified)
T11 chain: RSRSYSRSRSR

[12] = biological target: T12, nucleolar phosphoprotein p130 peptide TKKKRGSYRGGS (SEQ ID NO:182) (not fully specified)
T12 chain: TKKKRGSYRGGS

[13] = biological target: T13, CLK2 peptide RRRRRRSRTFSR (SEQ ID NO:177) (not fully specified)
T13 chain: RRRRRRSRTFSR

[14] = biological target: T14, CDC2L5 peptide SRRRSPSYSRHS (SEQ ID NO:214) (not fully specified)
T14 chain: SRRRSPSYSRHS

[15] = biological target: T15, TIAM1 peptide AMSRSASKRRSR (SEQ ID NO:168) (not fully specified)
T15 chain: AMSRSASKRRSR

[16] = biological target: T16, WNK1 peptide RRRRHTMDKDSR (SEQ ID NO:190) (not fully specified)
T16 chain: RRRRHTMDKDSR

[17] = biological target: T17, WNK1 peptide RRRRPTKSKGSK (SEQ ID NO:198) (not fully specified)
T17 chain: RRRRPTKSKGSK

[18] = biological target: T18, PSCDBP peptide FLRRSSSRRNRS (SEQ ID NO:180) (not fully specified)
T18 chain: FLRRSSSRRNRS

[19] = biological target: T19, CLK3 peptide RWKRRRSYSREH (SEQ ID NO:196) (not fully specified)
T19 chain: RWKRRRSYSREH

[20] = biological target: T20, serine/threonine-protein kinase PRP4 peptide GRRRRSRSKVK (SEQ ID NO:189) (not fully specified)
T20 chain: GRRRRSRSKVK

[21] = biological target: T21, serine/threonine-protein kinase PRP4 peptide TKKRSKSRSKER (SEQ ID NO:215) (not fully specified)
T21 chain: TKKRSKSRSKER

[22] = biological target: T22, ribosomal protein S6 peptide TGERKRKSVRG (SEQ ID NO:181) (not fully specified)
T22 chain: TGERKRKSVRG

[23] = biological target: T23, CXCR4 peptide VSRGSSLKILSK (SEQ ID NO:212) (not fully specified)
T23 chain: VSRGSSLKILSK

[24] = biological target: T24, WNK1 peptide KRHYRKSVRSRS (SEQ ID NO:179) (not fully specified)
T24 chain: KRHYRKSVRSRS

[25] = biological target: T25, CDC2L5 peptide RHSRSRSRHRLS (SEQ ID NO:213) (not fully specified)
T25 chain: RHSRSRSRHRLS

[26] = biological target: T26, beta-arrestin2 peptide HKRNSVRLVIR (SEQ ID NO:191) (not fully specified)
T26 chain: HKRNSVRLVIR

[27] = biological target: T27, BTK peptide PGSSHRKTKK (SEQ ID NO:195) (not fully specified)
T27 chain: PGSSHRKTKK

[28] = biological target: T28, prostaglandin E receptor 4 peptide DFRRRRSFRRIA (SEQ ID NO:186) (not fully specified)
T28 chain: DFRRRRSFRRIA

[29] = biological target: T29, SOLH peptide PLRRRESMHVEQ (SEQ ID NO:210) (not fully specified)
T29 chain: PLRRRESMHVEQ

[30] = biological target: T30, SHP-1 peptide DKEKSKGSLKRK (SEQ ID NO:209) (not fully specified)
T30 chain: DKEKSKGSLKRK

[31] = biological target: T31, forkhead (Drosophila)-like 16 peptide RRERSRSRRKQ (SEQ ID NO:176) (not fully specified)
T31 chain: RRERSRSRRKQ

[32] = biological target: T32, ARHGAP4 peptide PLRKSSLKKGGR (SEQ ID NO:193) (not fully specified)
T32 chain: PLRKSSLKKGGR

[33] = biological target: T33, S1P1 receptor peptide RTRSRRLTFRK (SEQ ID NO:169) (not fully specified)
T33 chain: RTRSRRLTFRK

[34] = biological target: T34, NPAT peptide FRASSRSTTK (SEQ ID NO:184) (not fully specified)
T34 chain: FRASSRSTTK

[35] = biological target: T35, IDN3 peptide VRRRRSQRISQR (SEQ ID NO:172) (not fully specified)
T35 chain: VRRRRSQRISQR

[36] = biological target: T36, Lyp peptide ILRPSKSVKLRS (SEQ ID NO:197) (not fully specified)
T36 chain: ILRPSKSVKLRS

[37] = biological target: T37, IDN3 peptide VSRPRKSRKRVD (SEQ ID NO:208) (not fully specified)
T37 chain: VSRPRKSRKRVD

B1: PKC-theta (protein)
chain: MSPFLRIGLSNFDCGSCQSCQGEAVNPYCAVLVKEYVESENGQMYIQKKPTMYPPWDSTFDAHINKGRVMQIIVKGKNVDLISETTVELYSLAERCRKNNGKTEIWLELKPQGRMLMNARYFLEMSDTKDMNEFETEGFFALHQRRGAIKQAKVHHVKCHEFTATFFPQPTFCSVCHEFVWGLNKQGYQCRQCNAAIHKKCIDKVIAKCTGSAINSRETMFHKERFKIDMPHRFKVYNYKSPTFCEHCGTLLWGLARQGLKCDACGMNVHHRCQTKVANLCGINQKLMAEALAMIESTQQARCLRDTEQIFREGPVEIGLPCSIKNEARPPCLPTPGKREPQGISWESPLDEVDKMCHLPEPELNKERPSLQIKLKIEDFILHKMLGKGSFGKVFLAEFKKTNQFFAIKALKKDVVLMDDDVECTMVEKRVLSLAWEHPFLTHMFCTFQTKENLFFVMEYLNGGDLMYHIQSCHKFDLSRATFYAAEIILGLQFLHSKGIVYRDLKLDNILLDKDGHIKIADFGMCKENMLGDAKTNTFCGTPDYIAPEILLGQKYNHSVDWWSFGVLLYEMLIGQSPFHGQDEEELFHSIRMDNPFYPRWLEKEAKDLLVKLFVREPEKRLGVRGDIRQHPLFREINWEELERKEIDPPFRPKVKSPFDCSNFDKEFLNEKPRLSFADRALINSMDQNMFRNFSFMNPGMERLIS
For B1, the in vitro phosphorylation (% of best substrate) [1] was 92, the in vitro phosphorylation (% of best substrate) [2] was 25 and the in vitro phosphorylation (% of best substrate) [3] was 55. The in vitro phosphorylation (% of best substrate) [4] was 48, the in vitro phosphorylation (% of best substrate) [5] was 85 and the in vitro phosphorylation (% of best substrate) [6] was 44. The in vitro phosphorylation (% of best substrate) [7] was 22, the in vitro phosphorylation (% of best substrate) [8] was 24 and the in vitro phosphorylation (% of best substrate) [9] was 19. For the same protein, the in vitro phosphorylation (% of best substrate) [10] was 51, the in vitro phosphorylation (% of best substrate) [11] was 16 and the in vitro phosphorylation (% of best substrate) [12] was 61. For the same protein, the in vitro phosphorylation (% of best substrate) [13] was 66, the in vitro phosphorylation (% of best substrate) [14] was 13 and the in vitro phosphorylation (% of best substrate) [15] was 100. The in vitro phosphorylation (% of best substrate) [16] was 40, the in vitro phosphorylation (% of best substrate) [17] was 28 and the in vitro phosphorylation (% of best substrate) [18] was 65. For the same protein, the in vitro phosphorylation (% of best substrate) [19] was 32, the in vitro phosphorylation (% of best substrate) [20] was 43 and the in vitro phosphorylation (% of best substrate) [21] was 12. The in vitro phosphorylation (% of best substrate) [22] was 62, the in vitro phosphorylation (% of best substrate) [23] was 13 and the in vitro phosphorylation (% of best substrate) [24] was 65. It also gave an in vitro phosphorylation (% of best substrate) [25] of 13, an in vitro phosphorylation (% of best substrate) [26] of 38 and an in vitro phosphorylation (% of best substrate) [27] of 33. The in vitro phosphorylation (% of best substrate) [28] was 50, the in vitro phosphorylation (% of best substrate) [29] was 16 and the in vitro phosphorylation (% of best substrate) [30] was 17. It also gave an in vitro phosphorylation (% of best substrate) [31] of 66, an in vitro phosphorylation (% of best substrate) [32] of 35 and an in vitro phosphorylation (% of best substrate) [33] of 100. The in vitro phosphorylation (% of best substrate) [34] was 54, the in vitro phosphorylation (% of best substrate) [35] was 86 and the in vitro phosphorylation (% of best substrate) [36] was 32. The in vitro phosphorylation (% of best substrate) [37] was 17.
